Biological target: the molecule itself
Test: cross-linking; coelomocytes infected with 10^8 CFU/ml AJ01 for 3 h; Triton X-100 insoluble pellet cross-linked 30 min at room temperature (DSS by the legend); Western blot

B1: AjCASP-1 (cysteine-aspartic specific protease-1 of Apostichopus japonicus), endogenous (enzyme, UniProt A0A6G5QC75 1-299, looked up)
chain: MAVADIPSSDYVFRERKRPIRGDEPSAIHFNLRYDMQQQTRGFAHIFNNDIFQKMDDRKGTRKDRDNLKETFTNLGFKVRVHDDCTASEIRDILLEASKVDHSDFDCFLCVFLTHGDDGIIYGSDGEPESFKGNGSVHSTNRTWLRLNDDVFDIFRGNNCSTLIGKPKIFIIQACRGGTAEFSAMIGSAATDYEEPLETSVGVKVTIPTEADFLISYSSSEGYYSFRELYKGTWFIQDLTRVLNEFGRNGDFIRMLTVVNKLVSERAIQGSGKPELEGKKQMPCFLSKLTRQLHLTAQT
notes: AjCASP-1, caspase-1 of Apostichopus japonicus, MH807451; 34 kDa monomer, self-cleaved to p20 (25 kDa) after AJ01 infection; In infected cells both the uncleaved and the self-cleaved form are present; also called AjCaspase-1; source: endogenous, A. japonicus coelomocyte lysate (uninfected or AJ01-infected)
stoichiometry N: 2

— PMC11932488, “Lytic coelomocyte death is tuned by cleavage but not phosphorylation of MLKL in echinoderms” (PLOS Pathogens, 2025)
